Source: publication PMC7496117, “A zinc finger protein BBX19 interacts with ABF3 to affect drought tolerance negatively in chrysanthemum”

Biological target: T1, GST-CmABF3 (Chrysanthemum morifolium, UniProt A0A7T8G3B9 1-415)
T1 sequence: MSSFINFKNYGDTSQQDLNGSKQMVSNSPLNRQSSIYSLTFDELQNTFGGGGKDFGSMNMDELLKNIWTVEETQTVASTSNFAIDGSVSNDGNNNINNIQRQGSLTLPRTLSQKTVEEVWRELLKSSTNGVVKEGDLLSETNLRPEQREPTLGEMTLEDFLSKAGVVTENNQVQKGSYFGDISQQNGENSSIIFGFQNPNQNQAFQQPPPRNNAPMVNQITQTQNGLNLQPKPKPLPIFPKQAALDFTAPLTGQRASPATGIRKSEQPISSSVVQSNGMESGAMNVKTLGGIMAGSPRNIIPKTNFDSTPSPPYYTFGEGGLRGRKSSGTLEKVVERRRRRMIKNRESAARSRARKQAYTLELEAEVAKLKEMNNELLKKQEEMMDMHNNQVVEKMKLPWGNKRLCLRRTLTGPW
Assay: EMSA; 3 ug protein; cold-probe competition 100-5000x, outcome only in gel; LightShift Chemiluminescent EMSA kit, 20 ul reaction, 3 ug protein; biotin probe 50 nM or 2 nM (Methods); buffer, salt, pH and temperature not stated
Details: protein: recombinant; tags: GST (N-terminal, pGEX); chain copies: 2; blunt

B1: proRAB18-probe (CmRAB18 promoter, two ABRE motifs) (dsDNA)
DNA 1: GAAATTAGACACGTACTTTTCAGTGATAACATAAACATACTTACGTGTTC
DNA 2: GAACACGTAAGTATGTTTATGTTATCACTGAAAAGTACGTGTCTAATTTC
binding result: binds
